Measurements as given in article PMC2964165 (The EMBO Journal, 2010).

Molecular target: recombinant Impβ (human, UniProt Q14974 1-876)
Test: pull-down

Sequence of recombinant Impβ (Q14974 whole entry): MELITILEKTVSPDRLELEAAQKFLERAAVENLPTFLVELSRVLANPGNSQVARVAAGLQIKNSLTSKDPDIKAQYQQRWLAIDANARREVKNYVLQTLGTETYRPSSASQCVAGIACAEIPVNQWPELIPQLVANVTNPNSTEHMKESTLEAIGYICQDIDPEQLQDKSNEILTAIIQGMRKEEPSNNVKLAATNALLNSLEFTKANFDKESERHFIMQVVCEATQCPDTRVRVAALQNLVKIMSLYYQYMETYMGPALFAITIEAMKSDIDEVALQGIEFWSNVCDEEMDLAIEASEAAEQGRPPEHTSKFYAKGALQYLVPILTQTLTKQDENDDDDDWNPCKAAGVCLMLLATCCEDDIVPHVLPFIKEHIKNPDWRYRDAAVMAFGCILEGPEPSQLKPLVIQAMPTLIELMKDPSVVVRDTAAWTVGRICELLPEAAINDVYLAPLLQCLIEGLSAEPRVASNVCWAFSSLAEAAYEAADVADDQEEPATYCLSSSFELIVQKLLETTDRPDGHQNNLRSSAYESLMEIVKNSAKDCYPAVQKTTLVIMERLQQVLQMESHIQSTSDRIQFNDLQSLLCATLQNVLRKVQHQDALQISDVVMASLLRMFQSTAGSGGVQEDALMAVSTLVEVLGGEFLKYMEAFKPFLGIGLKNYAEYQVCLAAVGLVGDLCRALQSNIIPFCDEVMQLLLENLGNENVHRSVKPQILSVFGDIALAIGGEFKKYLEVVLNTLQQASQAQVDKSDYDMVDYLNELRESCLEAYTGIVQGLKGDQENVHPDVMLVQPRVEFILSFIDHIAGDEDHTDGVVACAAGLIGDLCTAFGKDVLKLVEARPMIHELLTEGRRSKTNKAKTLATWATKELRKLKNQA

binding result: binds
B1: IBB peptide (peptide)
peptide: not shown
